Test results as given in publication PMC6033896, “Discovery of Mcl-1 inhibitors from integrated high throughput and virtual screening” (Scientific Reports, 2018).

Target: recombinant Bfl-1 protein (UniProt Q16548)
Assay: fluorescence polarisation; direct binding of the fluorescent Bid probe to recombinant protein; Ex 485 nm, Em 530 nm, room temperature; buffer of the Kd determination not told apart from the two competitive assay buffers

Chain of recombinant Bfl-1 protein (Q16548 whole entry): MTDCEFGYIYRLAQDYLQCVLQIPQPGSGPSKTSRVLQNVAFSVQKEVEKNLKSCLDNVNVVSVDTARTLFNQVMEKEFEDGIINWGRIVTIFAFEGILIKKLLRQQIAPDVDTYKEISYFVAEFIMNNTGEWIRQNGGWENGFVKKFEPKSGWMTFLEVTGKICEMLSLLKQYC

Kd: 0.3 nM
Substance: fluorescent labelled Bid BH3 peptide
